T1: biotin-labeled cynomolgus monkey CD137 fused to human IgG1 Fc fragment (cynomolgus monkey, UniProt Q07011 24-186 (human entry), limits assumed, biotin-labeled)
T1 construct: also called cyno CD137-Fc; not shown: human IgG1 Fc fragment
T1 chain: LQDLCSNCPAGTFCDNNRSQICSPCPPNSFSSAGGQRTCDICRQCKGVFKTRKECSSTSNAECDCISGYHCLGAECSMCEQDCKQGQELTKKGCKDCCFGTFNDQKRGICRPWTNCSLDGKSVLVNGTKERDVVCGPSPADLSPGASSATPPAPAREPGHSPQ

T2: biotinylated CD3 epsilon epitope peptide (UniProt P07766 22-48, biotinylated)
T2 chain: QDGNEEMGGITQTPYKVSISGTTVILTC

T3: biotin-labeled CD3 epsilon peptide antigen (human, also: biotin-labeled, position not given here)
T3 construct: Peptide of CD3 epsilon; also called CD3 peptide
T3 peptide: QDGNEEMGGITQTPY

B1: DADU01_3#002 (antibody, human IgG1, V domains shown)
VH: QVQLVESGGGLVQPGRSLRLSCAASGFTFSNAWMHWVRQAPGKGLEWVAQIKDKQNLYNAYYAESVKGRFTISRDDSKNSIYLQMNSLKTEDTAVYYCHYVHYASASTVLPAFGVDAWGQGTTVTVSS
VL: DIVMTQSPLSLPVTPGEPASISCRSSQSLVHSNRNTYLHWYQQKPGQAPRLLIYKVSNRFSGVPDRFSGSGSGTDFTLKISRVEAEDVGVYYCGQGTQVPYTFGQGTKLEIK
notes: IgG: VH joined to human IgG1 CH1-Fc; also called dBBDu124
B2: DXDU01_3#072 (antibody, human IgG1, V domains shown)
VH: B1 VH with K54R, Q55S, N56Q, N59A, E64P, P111G, F113Y
VL: B1 VL
notes: IgG: VH joined to human IgG1 CH1-Fc; also called dBBDu122
B3: DXDU01_3#051 (antibody, human IgG1, V domains shown)
VH: B1 VH with K54R, Q55G, N56Q, L57Q, E64P, T108S, A112G, F113Y
VL: B1 VL
notes: IgG: VH joined to human IgG1 CH1-Fc; also called dBBDu127
B4: DADU01_3#018 (antibody, human IgG1, V domains shown)
VH: B1 VH with K54R, Q55A, L57S, E64P, A104S, S105A, V109L, A112S
VL: B1 VL
notes: IgG: VH joined to human IgG1 CH1-Fc; also called dBBDu123
B5: DXDU01_3#019 (antibody, human IgG1, V domains shown)
VH: QVQLVESGGGLVQPGRSLRLSCAASGFTFSIAWMHWVRQAPGKGLEWVAQIKDKVNGYTAYYAESVKGRFTISRDDSKNSIYLQMNSLKTEDTAVYYCRYVHYAAYYDVLGYGGVDAWGQGTTVTVSS
VL: B1 VL
notes: IgG: VH joined to human IgG1 CH1-Fc; also called dBBDu125
B6: NNS6f52 (CE115HA340 with YMLGLG inserted between Kabat positions 99 and 100), one-arm antibody (antibody)
chain 1: QVQLVESGGGLVQPGRSLRLSCAASGFTFSNAWMHWVRQAPGKGLEWVAQIKDKSNNYATYYAESVKGRFTISRDDSKNSIYLQMNSLKTEDTAVYYCRYVHYAAYMLGLGYYGVDAWGQGTTVTVSSASTKGPSVFPLAPSSKSTSGGTAALGCLVKDYFPEPVTVSWNSGALTSGVHTFPAVLQSSGLYSLSSVVTVPSSSLGTQTYICNVNHKPSNTKVDKKVEPKSCDKTHTCPPCPAPEAAGGPSVFLFPPKPKDTLMISRTPEVTCVVVDVSHEDPEVKFNWYVDGVEVHNAKTKPREEQYASTYRVVSVLTVLHQDWLNGKEYKCKVSNKALPAPIEKTISKAKGQPREPQVYTLPPSRCELTKNQVSLSCAVKGFYPSDIAVEWESNGQPENNYKTTPPVLDSDGSFFLVSKLTVDKSRWQQGNVFSCSVMHEALHNHYTQKSLSLSPDYKDDDDK
chain 2: EPKSSDKTHTCPPCPAPELLGGPSVFLFPPKPKDTLMISRTPEVTCVVVDVSHEDPEVKFNWYVDGVEVHNAKTKPREEQYNSTYRVVSVLTVLHQDWLNGKEYKCKVSNKALPAPIEKTISKAKGQPREPQVCTLPPSRDELTKNQVSLWCLVKGFYPSDIAVEWESNGQPENNYKTTPPVLDSDGSFFLYSKLTVDKSRWQQGNVFSCSVMHEALHNRYTQKSLSLSP
chain 3: DIVMTQSPLSLPVTPGEPASISCRSSQSLVHSNRNTYLHWYQQKPGQAPRLLIYKVSNRFSGVPDRFSGSGSGTDFTLKISRVEAEDVGVYYCGQGTQVPYTFGQGTKLEIKRTVAAPSVFIFPPSDEQLKSGTASVVCLLNNFYPREAKVQWKVDNALQSGNSQESVTEQDSKDSTYSLSSTLTLSKADYEKHKVYACEVTHQGLSSPVTKSFNRGEC
B7: NNS6f55 (CE115HA340 with AGRWLA inserted between Kabat positions 99 and 100), one-arm antibody (antibody)
chain 1: B6 chain 1 with Y106A, M107G, L108R, G109W, G111A
chain 2: B6 chain 2
chain 3: B6 chain 3
B8: NNS6f63 (CE115HA340 with GGGGWV inserted between Kabat positions 99 and 100), one-arm antibody (antibody)
chain 1: B6 chain 1 with Y106G, M107G, L108G, L110W, G111V
chain 2: B6 chain 2
chain 3: B6 chain 3
B9: NNS6f59 (CE115HA340 with LLVQEG inserted between Kabat positions 99 and 100), one-arm antibody (antibody)
chain 1: B6 chain 1 with Y106L, M107L, L108V, G109Q, L110E
chain 2: B6 chain 2
chain 3: B6 chain 3
B10: NNS6f54 (CE115HA340 with FEWVGW inserted between Kabat positions 99 and 100), one-arm antibody (antibody)
chain 1: B6 chain 1 with Y106F, M107E, L108W, G109V, L110G, G111W
chain 2: B6 chain 2
chain 3: B6 chain 3
B11: NNS6f62 (CE115HA340 with NGGTRH inserted between Kabat positions 99 and 100), one-arm antibody (antibody)
chain 1: B6 chain 1 with Y106N, M107G, L108G, G109T, L110R, G111H
chain 2: B6 chain 2
chain 3: B6 chain 3
B12: NNS6f56 (CE115HA340 with REATRW inserted between Kabat positions 99 and 100), one-arm antibody (antibody, V domains shown)
VH: QVQLVESGGGLVQPGRSLRLSCAASGFTFSNAWMHWVRQAPGKGLEWVAQIKDKSNNYATYYAESVKGRFTISRDDSKNSIYLQMNSLKTEDTAVYYCRYVHYAAREATRWYYGVDAWGQGTTVTVSS
VL: DIVMTQSPLSLPVTPGEPASISCRSSQSLVHSNRNTYLHWYQQKPGQAPRLLIYKVSNRFSGVPDRFSGSGSGTDFTLKISRVEAEDVGVYYCGQGTQVPYTFGQGTKLEIKR
B13: NNS6f71 (CE115HA340 with GWVLGS inserted between Kabat positions 99 and 100), one-arm antibody (antibody, V domains shown)
VH: B12 VH with R106G, E107W, A108V, T109L, R110G, W111S
VL: B12 VL
B14: NNS6f68 (CE115HA340 with VEWGRW inserted between Kabat positions 99 and 100), one-arm antibody (antibody, V domains shown)
VH: B12 VH with R106V, A108W, T109G
VL: B12 VL
B15: NNS6f73 (CE115HA340 with WVVGVR inserted between Kabat positions 99 and 100), one-arm antibody (antibody, V domains shown)
VH: B12 VH with R106W, E107V, A108V, T109G, R110V, W111R
VL: B12 VL
B16: NNS6f67 (CE115HA340 with GLLRAA inserted between Kabat positions 99 and 100), one-arm antibody (antibody, V domains shown)
VH: B12 VH with R106G, E107L, A108L, T109R, R110A, W111A
VL: B12 VL
B17: NNS6f64 (CE115HA340 with LVSLTV inserted between Kabat positions 99 and 100), one-arm antibody (antibody, V domains shown)
VH: B12 VH with R106L, E107V, A108S, T109L, R110T, W111V
VL: B12 VL
B18: NNS6f58 (CE115HA340 with SWQVSR inserted between Kabat positions 99 and 100), one-arm antibody (antibody, V domains shown)
VH: B12 VH with R106S, E107W, A108Q, T109V, R110S, W111R
VL: B12 VL
B19: NNS6f72 (CE115HA340 with EGIWWG inserted between Kabat positions 99 and 100), one-arm antibody (antibody, V domains shown)
VH: B12 VH with R106E, E107G, A108I, T109W, R110W, W111G
VL: B12 VL
B20: DXDU01_3#072 (antibody, human IgG1, V domains shown)
VH: B1 VH with K54R, Q55S, N56Q, N59A, E64P, P111G, F113Y
VL: B12 VL
notes: also called dBBDu122

Where a chain is given by its changes, count along the chain named. Where no end group is shown, it is not given here.

T4 sequence (chain, as listed by the source limits assumed): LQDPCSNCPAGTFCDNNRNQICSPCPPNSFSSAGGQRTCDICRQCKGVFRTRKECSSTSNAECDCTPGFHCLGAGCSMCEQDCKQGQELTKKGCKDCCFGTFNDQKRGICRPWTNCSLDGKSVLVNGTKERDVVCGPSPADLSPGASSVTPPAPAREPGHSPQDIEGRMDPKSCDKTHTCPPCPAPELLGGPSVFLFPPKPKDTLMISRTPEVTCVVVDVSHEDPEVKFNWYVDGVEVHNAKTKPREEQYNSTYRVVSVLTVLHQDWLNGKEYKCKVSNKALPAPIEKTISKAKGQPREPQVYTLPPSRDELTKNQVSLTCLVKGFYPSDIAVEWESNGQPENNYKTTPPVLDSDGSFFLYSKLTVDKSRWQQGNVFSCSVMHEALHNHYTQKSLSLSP

The target of the first experiment is T1, biotin-labeled cynomolgus monkey CD137 …. Nature of the experiment: bead ELISA (chemiluminescence), purified IgG on biotin labeled cyno CD137-Fc on streptavidin beads. For orientation: ELISA stands for enzyme-linked immunosorbent assay.
Procedure: (§1) First, 20 micro g of Streptavidin-coated magnetic beads MyOne-T1 beads was washed three-times with blocking buffer including 0.5× block Ace, 0.02% Tween and 0.05% ProClin 300 and then blocked with this blocking buffer at room temperature for 60 minutes or more. […] After that each well was washed with TBST. […] The plate was incubated for one hour. […] 2 minutes later the fluorescence of each well was detected.
In turn, B1 displayed an RLU of 10800 RLU.

In turn, B2 displayed an RLU of 3350 RLU.

B3 had an RLU of 10900 RLU.

B4 registered an RLU of 6200 RLU.

As to B5, the RLU came out at 5090 RLU.

A further experiment concerns the target T4, biotin-labeled human CD137 fused to human IgG1 Fc fragment (human, biotin-labeled).
T4 construct: also called human CD137-Fc; biotin-human CD137-Fc
Nature of the experiment: bead ELISA (chemiluminescence), purified IgG on biotin labeled human CD137-Fc on streptavidin beads.
Procedure: as §1
With B1, the RLU turned out to be 39100 RLU.

B2: the RLU was found to be 14100 RLU.

B3 came in with an RLU of 38100 RLU.

B4 yielded an RLU of 32800 RLU.

B5 registered an RLU of 77800 RLU.

The next experiment deals with T2, biotinylated CD3 epsilon epitope peptide. The experiment is described as follows: SPR (Biacore); biotinylated CD3 epsilon epitope peptide on chip via streptavidin, antibody as analyte.
B6 registered a Kd of 52 nM.

With B7, the affinity, expressed as Kd, was 31 nM.

The molecule B8 returned a Kd of 69 nM.

B9 displayed a Kd of 200 nM.

Turning to B10, binding was characterised by a dissociation constant (Kd) of 29 nM.

In the case of B11, the Kd stood at 61 nM.

For the molecule B12, the Kd came to 21 nM.

B13 returned a Kd of 51 nM.

B14 registered a Kd of 45 nM.

As for B15, binding was characterised by a dissociation constant (Kd) of 26 nM.

With B16, the affinity, expressed as Kd, was 36 nM.

In the case of B17, the Kd stood at 78 nM.

In turn, B18 yielded a Kd of 44 nM.

Molecule B19 registered a Kd of 150 nM.

The next experiment has as its target T3, biotin-labeled CD3 epsilon peptide …. The experiment is described as follows: bead ELISA, biotin-CD3 epsilon peptide on streptavidin beads, 100 ng IgG.
As for B20, the “RLU, CD3 peptide” value was 177000 RLU and the “S/N ratio CD3 peptide/non coating” value amounted to 148.

The next experiment addresses T4, biotin-labeled human CD137 fused to …. The experiment is described as follows: bead ELISA; RLU on human CD137-Fc divided by RLU on human Fc.
Procedure: as §1
As for B1, the “S/N ratio human CD137-Fc/Fc” value was 20.3.

For the molecule B2, the “S/N ratio human CD137-Fc/Fc” value worked out at 6.58.

For B3, the “S/N ratio human CD137-Fc/Fc” value was found to be 13.1.

Consider B4, for which the “S/N ratio human CD137-Fc/Fc” value stood at 17.3.

For B5, the “S/N ratio human CD137-Fc/Fc” value came to 23.8.

In the next experiment the target is T1, biotin-labeled cynomolgus monkey CD137 …. Nature of the experiment: bead ELISA; RLU on cyno CD137-Fc divided by RLU on human Fc.
Procedure: as §1
As for B1, the “S/N ratio cyno CD137-Fc/Fc” value came out at 5.6.

As to B2, the “S/N ratio cyno CD137-Fc/Fc” value came to 1.56.

As for B3, the “S/N ratio cyno CD137-Fc/Fc” value is 3.73.

With B4, the “S/N ratio cyno CD137-Fc/Fc” value was found to be 3.27.

With B5, the “S/N ratio cyno CD137-Fc/Fc” value came to 1.56.

For orientation: Kd means the constant that tells how readily two partners part at equilibrium.

These data come from US20240270846A1 (published 2024).
